Results taken from patent publication US11814689B2 (priority 2021, dated 2023).

Key:
plasmid DNA [1] = assay type: biochemical
ssRNA = assay type: biochemical; details: 425 nM ssRNA, 200 nM nuclease, cyclic oligoadenylates
[2] = system: library of 46 synthetic RNAs; assay type: biochemical
[3] = system: fluorescent ssRNA reporter; assay type: biochemical
cA3 and cA4 = assay type: biochemical
SARS-CoV-2 RNA = assay type: biochemical
ssDNA = assay type: biochemical; details: for ssDNA cleavage activity: 425 nM ssDNA, 200 nM nuclease, cyclic oligoadenylates
SARS-CoV-2 N gene RNA = assay type: biochemical; details: IVT SARS-CoV-2 N gene fragment spiked in total RNA of negative swab, no RNA capture
plasmid DNA [4] = system: plasmid DNA
[5] = system: 2 Kb DNA reporter labelled biotin and digoxigenin; assay type: biochemical
[6] = system: fluorescent dsDNA reporter; assay type: biochemical

B1: AaCan2: Can2 from Archaeoglobi archaeon JdFR-42, JGI 2730024700, SEQ ID NO. 59 (protein)
chain: MSHIHVCLVSDQAIPNLTTALQFNPDTTVLLSTNEMKDKAKRLETVLKNKGLKVKTLKISAYDINDVITVSESLLNDCKGCKVSLNITGGTKIGTLGTFQVFYTASKPIFYVNTKDNEIIKLYPEKEQQKYPIEISISIKDYLAVYGFNVKSYVKDDSYIYKRKKVTDYLANLVIHRPNIIGEINYKLQNFEEKSYPLKINITKNKQVIKLYDILKDSGLVKIRNKSTIEIPDVETAKYLNGIWFEEYVYMMAKSLGADEVKLNVKGVWDTVGKHPPTNEFDILISKGNRLFYISCKTANPDRKIDDTDETIGKEYLYELDSISDSALGLFGKRMLASARAIKNDYVRKRAEILKIDIADGQNIATLKGKLQQWLSK
modifications: Archaeoglobi archaeon
With B1 the “dsDNase activity, activator and metal dependence” value (plasmid DNA [1]) was “Mn^2+- and cA3-dependent dsDNase”, the ssRNA cleavage activity (ssRNA) was “ssRNase when activated with cA4” and the “ssRNA sequence cleavage preference” value [2] was “ACGACG”. For the same molecule, the “cA4 concentration giving a similar fluorescent signal” value [3] was 0.5 nM, the “cA4 range in which rate of fluorescent signal is proportional to activator” value [3] was 1 to 10 nM and the “fold less cA4 needed than TtCsm6 for similar fluorescent signal” value [3] was 20 fold. For the same molecule, the “ring-nuclease activity on cyclic nucleotide activator” value (cA3 and cA4) was “binds and preserves the cyclic nucleotide”, the “SARS-CoV-2 RNA concentration detected directly in swabs” value (SARS-CoV-2 RNA; RNA capture with AaCan2 readout, no RNA extraction or pre-amplification) was 5×10^4 copies/μL and the “Ct of unprocessed swab samples detected” value (SARS-CoV-2 RNA; no RNA purification, lysis buffer 0.05% Triton X-100 and 1 mM EGTA, AaCan2 readout) was greater than 21.2. For the same molecule, the “loss of sensitivity compared to detection using purified RNA” value (SARS-CoV-2 RNA; unprocessed swab vs purified RNA) was roughly 5 fold, the ssDNA cleavage activity (ssDNA) was “Reproducible cleavage of ssDNA is also detectable” and the “cA4 concentration required for robust ssDNA cleavage” value (ssDNA; Mn^2+-specific) was 45 nM. For the same molecule, the “target RNA concentration detected by TtCsm assay coupled with the nuclease” value (SARS-CoV-2 N gene RNA) was 10^5 copies/μL.

B2: TtCan1: Can1 from Thermus thermophilus, NCBI WP_011229147.1, SEQ ID NO. 61 (protein, listed as Thermus thermophilus)
chain: MQAPVYLCLLGNDPAPAYLGLKVVEREAGRVAKAVFYSFPAWNEEYGKKRQAFFRLLSEKGVLYEERPLEKGLEEAEAREVWVNLTGGAKYWAVRFLGHWRRPGARVFLVEGHRALEAPRALFLWPREEERSLEAEALTLEEYARLYLEPLGEAWERVSPPGAFPPGAQAARLPGREGGVFVVHRGLPYWYWVRPHLGGEAKDMSRKALSAFSGEAKRLGGQLCLPVVPYHKAHLRSRHPKERENVFARWRAWAREYGVFLVDPGRPLEEEVASLIKGKASKKALPLPQEGPLLLALVSEQAVPLYAAYLHAGPREVYLLTTPEMESRLRWAEAFFRGKGVRVHRSFLSGPWALREVRDLLAPVVEEALRRGHPVHANLNSGTTAMALGLYLALRDGARAHYLDGDRLLLLDGGEAEVPWEEGRPEDLLALRGYRFEEEYPDARPDPGLLALAEEILRRWDEVQTSWEASPLVRRFLKFWKKRFGQAFPPKRLSRLKGLPLEYAVYSHLNAHLAPKGGQARMGGHLVPLGGNEALAPQSTEVDGVFFHRGALWFVECKPTDEGLRERAPIMAELVRSVGGVEARGLMVARRWRGAPPPASPNLVYMALEGGEGVGVYRFPEELEKALSRNPAPRRG
In the case of B2, the “plasmid DNA cleavage with cA4” value (plasmid DNA [1]) is reported as “comparable to the background activity”, the “size of plasmid DNA degradation fragments” value (plasmid DNA [1]) is reported as roughly 100 bp and the “DNA sequence cleavage preference” value (plasmid DNA [4]) is reported as “non-sequence specific”. For the same molecule, the ssRNA cleavage activity (ssRNA) was “cA4-dependent single-stranded RNase”, the “RNA reporter cleavage compared with AaCan2” value [3] was “requires higher concentrations of cA4 and produces less fluorescent signal” and the “lateral flow result with cA3” value [5] was “positive result”. For the same molecule, the “lateral flow result with cA4” value [5] was “negative result” and the ssDNA cleavage activity (ssDNA) was “does not cleave ssDNA”.

B3: CtNucC: NucC from Clostridium tepidum, NCBI WP_195923598.1, SEQ ID NO. 55 (protein, listed as Clostridium tepidum)
chain: MGQIDIKSLFYSLQTQMCAKLSTNRQHIQHPGIKGDSSELNWIEWLKTYLPKRYSVDKAFIIDCDGNMSDQIDVVIYDQQYSPFVFNQDNAYYIPAESVYAIFEVKQEINKENIIYAGDKTKSVRSLKRTSTAIPHAGGYYAPKPHNKILSGILTLSSVWNPPLGKSFEEAIYSLEDESKLDIGCILAEGSFLADYKNDVLMKSTEEESLIFFFLKLLIELQSLGTTPAIDINCYGRALDSI
With B3 the “dsDNase activity among three thermophilic NucC orthologs” value (plasmid DNA [1]) was “highest dsDNase activity”, the “size of plasmid DNA digestion fragments” value (plasmid DNA [1]) was 300-400 bp and the “cA3 sensitivity relative to AaCan2” value [6] was 100 fold. For the same molecule, the “cA3 sensitivity relative to TtCan1” value [6] was 10 fold, the “lowest concentration of cA3 detected” value [6] was 0.5 nM and the “target RNA concentration detected by TtCsm assay coupled with the nuclease” value (SARS-CoV-2 N gene RNA) was 10^7 copies/μL.
